The supplement of paper PMC9112550, “Optimization of the antimicrobial peptide Bac7 by deep mutational scanning” (BMC Biology, 2022)

test system: Escherichia coli TOP10; test: shrunken log2 fold change of peptide-encoding DNA abundance (4.5 h post-induction vs induction); higher = less antimicrobial activity (less host growth inhibition); conditions: time post-induction: 4.5 h; library: site-saturation at positions 5, 18, 19, 20
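Also: peptides expressed intracellularly from a pBAD plasmid library in pooled LB shake-flask culture, induced with 0.3% L-arabinose, DNA abundance read by NGS, three biological replicates, DESeq2 with apeglm shrinkage.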

Row | Sequence | shrunken log2 fold change
1 | RRIRHRPPRLPRPRPRPIQSPRP | -0.0918
2 | RRIRHRPPRLPRPRPRPSGIPRP | -0.0153
3 | RRIRQRPPRLPRPRPRPHNEPRP | -0.161
4 | RRIRLRPPRLPRPRPRPEYLPRP | -0.0639
5 | RRIRGRPPRLPRPRPRPIPNPRP | 0.172
6 | RRIRERPPRLPRPRPRPHWPPRP | 0.132
7 | RRIRNRPPRLPRPRPRPPRIPRP | 0.325
8 | RRIRTRPPRLPRPRPRPMMQPRP | -0.0796
9 | RRIRPRPPRLPRPRPRPNQVPRP | 0.0456
10 | RRIRHRPPRLPRPRPRPIITPRP | -1.46
11 | RRIRVRPPRLPRPRPRPTEEPRP | 0.0849
12 | RRIRVRPPRLPRPRPRPEPGPRP | 0.547
13 | RRIRNRPPRLPRPRPRPYFEPRP | -0.797
14 | RRIRWRPPRLPRPRPRPSWIPRP | 0.0261
15 | RRIRSRPPRLPRPRPRPVKHPRP | 0.124
16 | RRIRNRPPRLPRPRPRPKYSPRP | -0.379
17 | RRIRWRPPRLPRPRPRPGKKPRP | 0.375
18 | RRIRARPPRLPRPRPRPTGKPRP | 0.215
19 | RRIRTRPPRLPRPRPRPAARPRP | 0.374
20 | RRIRARPPRLPRPRPRPKGTPRP | 0.233
21 | RRIRFRPPRLPRPRPRPGAVPRP | 0.223
22 | RRIRFRPPRLPRPRPRPCMPPRP | -0.35
23 | RRIRKRPPRLPRPRPRPNHQPRP | -0.376
24 | RRIRKRPPRLPRPRPRPPRVPRP | 0.648
25 | RRIRWRPPRLPRPRPRPQDYPRP | -0.406

Row | Sequence | shrunken log2 fold change
26 | RRIRDRPPRLPRPRPRPWVPPRP | 0.164
27 | RRIRHRPPRLPRPRPRPHPAPRP | 0.21
28 | RRIRKRPPRLPRPRPRPFQNPRP | -0.0235
29 | RRIRIRPPRLPRPRPRPINEPRP | -0.516
30 | RRIRNRPPRLPRPRPRPIIEPRP | 0.00312
31 | RRIRGRPPRLPRPRPRPKYFPRP | -0.251
32 | RRIRWRPPRLPRPRPRPHCTPRP | -0.401
33 | RRIRFRPPRLPRPRPRPYRQPRP | -0.477
34 | RRIRTRPPRLPRPRPRPNARPRP | -0.0251
35 | RRIRTRPPRLPRPRPRPLTAPRP | -0.32
36 | RRIRHRPPRLPRPRPRPADYPRP | -0.291
37 | RRIRLRPPRLPRPRPRPNMDPRP | 0.0212
38 | RRIRLRPPRLPRPRPRPGPMPRP | 0.255
39 | RRIRYRPPRLPRPRPRPRQRPRP | 0.194
40 | RRIRMRPPRLPRPRPRPRIRPRP | 0.79
41 | RRIRGRPPRLPRPRPRPEAIPRP | 1.82
42 | RRIRSRPPRLPRPRPRPVVIPRP | -0.429
43 | RRIRGRPPRLPRPRPRPQITPRP | 0.25
44 | RRIRRRPPRLPRPRPRPILGPRP | 0.0385
45 | RRIRCRPPRLPRPRPRPMFGPRP | -0.556
46 | RRIRLRPPRLPRPRPRPQCSPRP | -0.127
47 | RRIRARPPRLPRPRPRPDDPPRP | 0.632
48 | RRIRPRPPRLPRPRPRPVCTPRP | 0.0082
49 | RRIRYRPPRLPRPRPRPIATPRP | 0.0782
50 | RRIRVRPPRLPRPRPRPGSGPRP | 0.0303

Row | Sequence | shrunken log2 fold change
51 | RRIRCRPPRLPRPRPRPTESPRP | 0.101
52 | RRIRIRPPRLPRPRPRPMEHPRP | -0.199
53 | RRIRIRPPRLPRPRPRPPWGPRP | 0.0517
54 | RRIRSRPPRLPRPRPRPSLKPRP | 0.0541
55 | RRIRARPPRLPRPRPRPMMAPRP | 0.466
56 | RRIRIRPPRLPRPRPRPLIYPRP | -0.255
57 | RRIRLRPPRLPRPRPRPEGAPRP | 0.552
58 | RRIRSRPPRLPRPRPRPIIRPRP | -1.09
59 | RRIRFRPPRLPRPRPRPFECPRP | -0.0767
60 | RRIRVRPPRLPRPRPRPGKRPRP | -0.00991
61 | RRIRCRPPRLPRPRPRPFDAPRP | 0.0524
62 | RRIRWRPPRLPRPRPRPEPHPRP | 0.65
63 | RRIRGRPPRLPRPRPRPPPAPRP | 1.57
64 | RRIRSRPPRLPRPRPRPGFLPRP | 0.078
65 | RRIRNRPPRLPRPRPRPCLQPRP | -0.344
66 | RRIRSRPPRLPRPRPRPWRPPRP | 0.0563
67 | RRIRMRPPRLPRPRPRPHEPPRP | -0.0151
68 | RRIRSRPPRLPRPRPRPRQQPRP | 0.0352
69 | RRIRARPPRLPRPRPRPLYYPRP | -0.316
70 | RRIRQRPPRLPRPRPRPRTWPRP | -0.182
71 | RRIRNRPPRLPRPRPRPGLIPRP | 0.16
72 | RRIRSRPPRLPRPRPRPAGVPRP | 0.0729
73 | RRIRARPPRLPRPRPRPQDTPRP | -0.179
74 | RRIRRRPPRLPRPRPRPDDIPRP | -0.00879
75 | RRIRARPPRLPRPRPRPALHPRP | 0.651

Row | Sequence | shrunken log2 fold change
76 | RRIRVRPPRLPRPRPRPYQTPRP | -0.0531
77 | RRIRRRPPRLPRPRPRPWINPRP | -0.37
78 | RRIRWRPPRLPRPRPRPEFSPRP | 0.109
79 | RRIRPRPPRLPRPRPRPALDPRP | 0.628
80 | RRIRHRPPRLPRPRPRPRDPPRP | -0.153
81 | RRIRGRPPRLPRPRPRPDIMPRP | 0.0438
82 | RRIRTRPPRLPRPRPRPYVIPRP | -1.03
83 | RRIRIRPPRLPRPRPRPLIDPRP | -0.42
84 | RRIRPRPPRLPRPRPRPWWIPRP | -0.243
85 | RRIRQRPPRLPRPRPRPYIRPRP | -0.197
86 | RRIRWRPPRLPRPRPRPRWIPRP | 0.211
87 | RRIRLRPPRLPRPRPRPAQTPRP | -0.00496
88 | RRIRQRPPRLPRPRPRPAILPRP | 0.312
89 | RRIRIRPPRLPRPRPRPKNIPRP | -0.733
90 | RRIRCRPPRLPRPRPRPCRNPRP | -0.154
91 | RRIRQRPPRLPRPRPRPPFGPRP | 0.219
92 | RRIRCRPPRLPRPRPRPPPCPRP | 1.07
93 | RRIRNRPPRLPRPRPRPHLDPRP | 0.118
94 | RRIRMRPPRLPRPRPRPVTSPRP | -0.0914
95 | RRIRYRPPRLPRPRPRPHWWPRP | -0.0763
96 | RRIRCRPPRLPRPRPRPIELPRP | -0.0768
97 | RRIRERPPRLPRPRPRPMPQPRP | -0.201
98 | RRIRMRPPRLPRPRPRPSCAPRP | 0.563
99 | RRIRTRPPRLPRPRPRPYQHPRP | -0.376
100 | RRIRPRPPRLPRPRPRPQGVPRP | 0.07

Row | Sequence | shrunken log2 fold change
101 | RRIRNRPPRLPRPRPRPHNSPRP | -0.767
102 | RRIRGRPPRLPRPRPRPLNEPRP | 0.57
103 | RRIRMRPPRLPRPRPRPDMQPRP | 2
104 | RRIRLRPPRLPRPRPRPMIQPRP | -0.139
105 | RRIRRRPPRLPRPRPRPIASPRP | 0.432
106 | RRIRSRPPRLPRPRPRPWTEPRP | -0.314
107 | RRIRARPPRLPRPRPRPGKAPRP | 0.266
108 | RRIRERPPRLPRPRPRPWDIPRP | -0.0155
109 | RRIRSRPPRLPRPRPRPGEKPRP | -0.000687
110 | RRIRLRPPRLPRPRPRPRFIPRP | -0.243
111 | RRIRNRPPRLPRPRPRPQEAPRP | -0.0152
112 | RRIRRRPPRLPRPRPRPDYWPRP | 0.0192
113 | RRIRCRPPRLPRPRPRPMHEPRP | -0.00208
114 | RRIRCRPPRLPRPRPRPHRPPRP | -0.0186
115 | RRIRSRPPRLPRPRPRPEVAPRP | 0.102
116 | RRIRNRPPRLPRPRPRPAQAPRP | -0.0253
117 | RRIRIRPPRLPRPRPRPDVNPRP | 0.0617
118 | RRIRKRPPRLPRPRPRPYSRPRP | -0.0735
119 | RRIRGRPPRLPRPRPRPPQLPRP | 0.824
120 | RRIRFRPPRLPRPRPRPILTPRP | -0.689
121 | RRIRIRPPRLPRPRPRPYWIPRP | -0.568
122 | RRIRMRPPRLPRPRPRPHCAPRP | 1.76
123 | RRIRNRPPRLPRPRPRPTFPPRP | -0.112
124 | RRIRSRPPRLPRPRPRPAMIPRP | 0.365
125 | RRIRIRPPRLPRPRPRPCSSPRP | 0.00235

Row | Sequence | shrunken log2 fold change
126 | RRIRQRPPRLPRPRPRPCGDPRP | -0.0871
127 | RRIRMRPPRLPRPRPRPFISPRP | -0.4
128 | RRIRYRPPRLPRPRPRPMCQPRP | -0.394
129 | RRIRSRPPRLPRPRPRPHVEPRP | 0.121
130 | RRIRKRPPRLPRPRPRPCMTPRP | 0.0372
131 | RRIRCRPPRLPRPRPRPKHKPRP | -0.164
132 | RRIRVRPPRLPRPRPRPLGEPRP | -0.162
133 | RRIRDRPPRLPRPRPRPVMWPRP | 0.783
134 | RRIRDRPPRLPRPRPRPKPKPRP | 0.254
135 | RRIRMRPPRLPRPRPRPLHLPRP | -0.254
136 | RRIRKRPPRLPRPRPRPREPPRP | 1.39
137 | RRIRMRPPRLPRPRPRPPDPPRP | 1.25
138 | RRIRWRPPRLPRPRPRPMTWPRP | 2.14
139 | RRIRCRPPRLPRPRPRPVCAPRP | 0.264
140 | RRIRNRPPRLPRPRPRPHCDPRP | -0.292
141 | RRIRNRPPRLPRPRPRPCIEPRP | -0.117
142 | RRIRFRPPRLPRPRPRPLNWPRP | -0.109
143 | RRIRLRPPRLPRPRPRPGHYPRP | -0.0695
144 | RRIRERPPRLPRPRPRPDCRPRP | 0.0169
145 | RRIRARPPRLPRPRPRPVQHPRP | 0.555
146 | RRIRVRPPRLPRPRPRPAQNPRP | 0.261
147 | RRIRERPPRLPRPRPRPQKCPRP | -0.202
148 | RRIRMRPPRLPRPRPRPYQYPRP | -0.0219
149 | RRIRVRPPRLPRPRPRPYVLPRP | -1.12
150 | RRIRPRPPRLPRPRPRPMRFPRP | 0.0813
